Reference: PMC7837213, “Systematic Activity Maturation of a Single-Domain Antibody with Non-canonical Amino Acids through Chemical Mutagenesis” (Cell Chemical Biology, 2021)

Biological target: T1, Beta - Amyloid (1 - 42) - Lys(Biotin) - NH2, Human (human, UniProt P05067 672-713, Lys(Biotin) added at the C-terminus; C-terminal amide (NH2))
T1 construct: amyloid-beta peptide (1-42), human, cut product of the amyloid precursor protein; numbers count on: the Aβ peptide; added C-terminal lysine that carries the biotin, amidated; Held on streptavidin biosensors by the C-terminal biotin; also called monomeric C-terminally biotinylated Aβ42; C-terminally immobilized monomeric Aβ42; source: bought: Anaspec
T1 sequence (P05067 other isoform, or with tags, fused parts or gaps): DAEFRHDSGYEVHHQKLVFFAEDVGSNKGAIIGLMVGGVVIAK
Test: BLI; C-terminally biotinylated monomeric Aβ42 (5 μg/ml) on streptavidin biosensors; antibodies at 20 μM in PBS + 0.1% BSA + 0.02% TWEEN 20, 30°C; association 900 s, dissociation 1200 s; signal of biocytin-coated sensors subtracted
Conditions: both partners purified

binding result | Binder
binds | DesAb-Aβ(3–9) (antibody, V domains shown, single-domain antibody on a human VH scaffold with the in-silico-designed CDR3 loop HETLTLR and a thermally stabilizing mutation; No cleavage of the tag is told; also called the starting construct; starting single-domain antibody; source: E. coli BL21 (DE3)-Gold, pRSET-B vector, purified (Ni-NTA, SEC); not shown: His6, N-terminal, kept) VH: EVQLVESGGGLVQPGGSLRLSCAASGFNIKDTYIGWVRRAPGKGKEWVASIYPTNGYTRYADSVKGRFTISADTSKNTAYLQMNSLRAEDTAVYYCAAGSHETLTLREEEAAAWGQGTLVTVSS
binds | DesAb-Aβ(3–9) (T138captamine) (antibody, V domains shown, position 138: non-canonical side chain, captamine (2-(dimethylamino)ethanethiol) added to dehydroalanine (Dha) by thiol-Michael addition; epimeric mixture of D and L side chains, T138 is replaced through T138C and Dha by the captamine adduct; The new residue at 138 is written as C because the thiol adduct of Dha is an S-alkylated cysteine (S-(2-dimethylaminoethyl)cysteine); also called the captamine mutant; not shown: His6, N-terminal, kept) VH: EVQLVESGGGLVQPGGSLRLSCAASGFNIKDTYIGWVRRAPGKGKEWVASIYPTNGYTRYADSVKGRFTISADTSKNTAYLQMNSLRAEDTAVYYCAAGSHECLTLREEEAAAWGQGTLVTVSS
